Source: the supplement of paper PMC10567573

B1: RSPH3 (parent)
chain: LELQRQREARKRALARKQAQEQLR

Variants of: B1
Assay: protein stability index of a GFP-peptide fusion (GPS, HEK-293T) (PSI 1-6); higher = more stable
Conditions: c terminus: a fixed tail appended
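Note: lentivirally expressed fusions sorted by FACS into six bins by GFP to DsRed ratio, PSI derived from sequencing read proportions per bin multiplied by bin number.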

Protein stability index of substitutions, site by site:
Q20: P 4.32; V 3.78; I 3.47; T 3.79; R 3.79; E 4.48; A 3.61; W 2.04; N 3.11; G 3.52; S 3.77; F 2.02; K 4.38; D 4.74; L 2.8; H 3.77; M 2.88; Y 2.45; C 3.35
Q18: S 3.38; F 3.53; N 3.68; E 3.86; V 2.56; H 3.11; L 3.13; K 3.39; P 4.32; C 2.81; Y 2.81; A 3.12; T 4.05; W 2.5; M 3.46; I 2.33; G 3.4; R 3.64
K17: N 4.45; Y 3.71; H 4.17; M 4.14; R 4.38; T 4.43; Q 4.15; P 4.48; A 4.1; F 3.95; D 3.92; L 3.97; V 4.31; I 3.77; C 3.77; S 4.21; W 3.44; G 4.66; E 4.69
E21: G 3.09; L 3.48; Q 3.23; N 3.87; C 3.01; V 3.31; D 3.62; W 3.48; I 3.33; R 3.99; H 3.23; F 2.93; T 3.81; K 4.28; A 2.72; M 3.75; Y 3; P 3.45; S 3.73
R24: P 3.86; Y 3.16; M 3.33; K 3.72; L 3.18; V 4.43; T 3.82; N 4.23; H 3.85; D 4.2; E 4.56; F 3.77; Q 4.54; G 4.13; W 2.98; S 3.8; I 3.46; A 3.97; C 4.13
L23: Q 4.35; I 3.56; N 3.92; C 4.26; K 3.83; H 4.25; S 3.78; D 4.42; Y 3.9; P 3.78; W 3.69; T 4.08; F 3.96; E 4.59; G 4.78; R 4.16; V 2.77; A 4.96; M 4.31
A15: W 3.53; Y 3.61
Q22: G 4.22; D 4.29; R 3.93; I 2.65; V 3.37; T 3.16; S 3.5; M 2.92; L 3.63; Y 3.01; A 4.19; P 3.79; F 3.04; C 3.11; K 3.77; H 2.95; N 4.14; W 2.8; E 3.8
R16: T 4.02; C 3.57; S 3.27; N 4.6; Q 3.96; D 3.99; M 3.39; I 3.7; A 4.19; W 3.74; K 3.93; G 4.46; H 4.14; V 3.17; P 4.32; Y 3.4; F 3.43; L 4.25; E 4.26
A19: G 3.53; L 3.09; N 4.08; T 4; H 4.33; C 4.22; F 3.08; K 4.08; P 3.72; W 3.15; I 3.55; Q 4.54; E 3.28; Y 2.92
